Data taken from patent publication US20180009871A1 (INTARCIA THERAPEUTICS, published 2018).
Where no end group is shown, it is not given here. [ ]: non-standard residue; d: D form. Aib = CC(C)(N)C(=O)O

B1: Compound A1 (peptide)
peptide: YSHGTFTSDYSKYLD[Aib]KYAQEFV[Aib]WLEDEPSSGAPPPS-OH
modifications: N-terminus assumed
SMILES: CC(C)C[C@H](NC(=O)[C@H](Cc1ccc(O)cc1)NC(=O)[C@H](CCCCN)NC(=O)[C@H](CO)NC(=O)[C@H](Cc1ccc(O)cc1)NC(=O)[C@H](CC(=O)O)NC(=O)[C@H](CO)NC(=O)[C@@H](NC(=O)[C@H](Cc1ccccc1)NC(=O)[C@@H](NC(=O)CNC(=O)[C@H](Cc1c[nH]cn1)NC(=O)[C@H](CO)NC(=O)[C@@H](N)Cc1ccc(O)cc1)[C@@H](C)O)[C@@H](C)O)C(=O)N[C@@H](CC(=O)O)C(=O)NC(C)(C)C(=O)N[C@@H](CCCCN)C(=O)N[C@@H](Cc1ccc(O)cc1)C(=O)N[C@@H](C)C(=O)N[C@@H](CCC(N)=O)C(=O)N[C@@H](CCC(=O)O)C(=O)N[C@@H](Cc1ccccc1)C(=O)N[C@H](C(=O)NC(C)(C)C(=O)N[C@@H](Cc1c[nH]c2ccccc12)C(=O)N[C@@H](CC(C)C)C(=O)N[C@@H](CCC(=O)O)C(=O)N[C@@H](CC(=O)O)C(=O)N[C@@H](CCC(=O)O)C(=O)N1CCC[C@H]1C(=O)N[C@@H](CO)C(=O)N[C@@H](CO)C(=O)NCC(=O)N[C@@H](C)C(=O)N1CCC[C@H]1C(=O)N1CCC[C@H]1C(=O)N1CCC[C@H]1C(=O)N[C@@H](CO)C(=O)O)C(C)C
B2: Compound A2 (peptide)
peptide: YSHGTFTSDYSKYLD[Aib]KSAQEFV[Aib]WLEDEPSSGAPPPS-OH
modifications: N-terminus assumed
SMILES: CC(C)C[C@H](NC(=O)[C@H](Cc1ccc(O)cc1)NC(=O)[C@H](CCCCN)NC(=O)[C@H](CO)NC(=O)[C@H](Cc1ccc(O)cc1)NC(=O)[C@H](CC(=O)O)NC(=O)[C@H](CO)NC(=O)[C@@H](NC(=O)[C@H](Cc1ccccc1)NC(=O)[C@@H](NC(=O)CNC(=O)[C@H](Cc1c[nH]cn1)NC(=O)[C@H](CO)NC(=O)[C@@H](N)Cc1ccc(O)cc1)[C@@H](C)O)[C@@H](C)O)C(=O)N[C@@H](CC(=O)O)C(=O)NC(C)(C)C(=O)N[C@@H](CCCCN)C(=O)N[C@@H](CO)C(=O)N[C@@H](C)C(=O)N[C@@H](CCC(N)=O)C(=O)N[C@@H](CCC(=O)O)C(=O)N[C@@H](Cc1ccccc1)C(=O)N[C@H](C(=O)NC(C)(C)C(=O)N[C@@H](Cc1c[nH]c2ccccc12)C(=O)N[C@@H](CC(C)C)C(=O)N[C@@H](CCC(=O)O)C(=O)N[C@@H](CC(=O)O)C(=O)N[C@@H](CCC(=O)O)C(=O)N1CCC[C@H]1C(=O)N[C@@H](CO)C(=O)N[C@@H](CO)C(=O)NCC(=O)N[C@@H](C)C(=O)N1CCC[C@H]1C(=O)N1CCC[C@H]1C(=O)N1CCC[C@H]1C(=O)N[C@@H](CO)C(=O)O)C(C)C
B3: Compound A79 (peptide)
peptide: YSHGTFTSDYSKYLD[Aib]KEAQEFV[Aib]WLEDEPSSGAPPPS-OH
modifications: N-terminus assumed
SMILES: CC(C)C[C@H](NC(=O)[C@H](Cc1ccc(O)cc1)NC(=O)[C@H](CCCCN)NC(=O)[C@H](CO)NC(=O)[C@H](Cc1ccc(O)cc1)NC(=O)[C@H](CC(=O)O)NC(=O)[C@H](CO)NC(=O)[C@@H](NC(=O)[C@H](Cc1ccccc1)NC(=O)[C@@H](NC(=O)CNC(=O)[C@H](Cc1c[nH]cn1)NC(=O)[C@H](CO)NC(=O)[C@@H](N)Cc1ccc(O)cc1)[C@@H](C)O)[C@@H](C)O)C(=O)N[C@@H](CC(=O)O)C(=O)NC(C)(C)C(=O)N[C@@H](CCCCN)C(=O)N[C@@H](CCC(=O)O)C(=O)N[C@@H](C)C(=O)N[C@@H](CCC(N)=O)C(=O)N[C@@H](CCC(=O)O)C(=O)N[C@@H](Cc1ccccc1)C(=O)N[C@H](C(=O)NC(C)(C)C(=O)N[C@@H](Cc1c[nH]c2ccccc12)C(=O)N[C@@H](CC(C)C)C(=O)N[C@@H](CCC(=O)O)C(=O)N[C@@H](CC(=O)O)C(=O)N[C@@H](CCC(=O)O)C(=O)N1CCC[C@H]1C(=O)N[C@@H](CO)C(=O)N[C@@H](CO)C(=O)NCC(=O)N[C@@H](C)C(=O)N1CCC[C@H]1C(=O)N1CCC[C@H]1C(=O)N1CCC[C@H]1C(=O)N[C@@H](CO)C(=O)O)C(C)C
B4: Compound A78 (peptide)
peptide: YSHGTFTSDYSKYLD[Aib]KLAQEFV[Aib]WLEDEPSSGAPPPS-OH
modifications: N-terminus assumed
SMILES: CC(C)C[C@H](NC(=O)[C@H](CCCCN)NC(=O)C(C)(C)NC(=O)[C@H](CC(=O)O)NC(=O)[C@H](CC(C)C)NC(=O)[C@H](Cc1ccc(O)cc1)NC(=O)[C@H](CCCCN)NC(=O)[C@H](CO)NC(=O)[C@H](Cc1ccc(O)cc1)NC(=O)[C@H](CC(=O)O)NC(=O)[C@H](CO)NC(=O)[C@@H](NC(=O)[C@H](Cc1ccccc1)NC(=O)[C@@H](NC(=O)CNC(=O)[C@H](Cc1c[nH]cn1)NC(=O)[C@H](CO)NC(=O)[C@@H](N)Cc1ccc(O)cc1)[C@@H](C)O)[C@@H](C)O)C(=O)N[C@@H](C)C(=O)N[C@@H](CCC(N)=O)C(=O)N[C@@H](CCC(=O)O)C(=O)N[C@@H](Cc1ccccc1)C(=O)N[C@H](C(=O)NC(C)(C)C(=O)N[C@@H](Cc1c[nH]c2ccccc12)C(=O)N[C@@H](CC(C)C)C(=O)N[C@@H](CCC(=O)O)C(=O)N[C@@H](CC(=O)O)C(=O)N[C@@H](CCC(=O)O)C(=O)N1CCC[C@H]1C(=O)N[C@@H](CO)C(=O)N[C@@H](CO)C(=O)NCC(=O)N[C@@H](C)C(=O)N1CCC[C@H]1C(=O)N1CCC[C@H]1C(=O)N1CCC[C@H]1C(=O)N[C@@H](CO)C(=O)O)C(C)C
B5: Compound A3 (peptide)
peptide: YSQGTFTSDYSKYLDAARAQEFVKWLEDEPKSKSPPPS-NH2
B6: Compound A5 (peptide)
peptide: YSHGTFTSDYSKYLDSARAQEFVKWLEDEPSSGAPPPS-NH2
B7: Compound A6 (peptide)
peptide: WSQGTFTSDYSKYLD[Aib]KRAQEFV[Aib]WLEDEPSSGAPPPS-OH
modifications: N-terminus assumed
SMILES: CC(C)C[C@H](NC(=O)[C@H](Cc1ccc(O)cc1)NC(=O)[C@H](CCCCN)NC(=O)[C@H](CO)NC(=O)[C@H](Cc1ccc(O)cc1)NC(=O)[C@H](CC(=O)O)NC(=O)[C@H](CO)NC(=O)[C@@H](NC(=O)[C@H](Cc1ccccc1)NC(=O)[C@@H](NC(=O)CNC(=O)[C@H](CCC(N)=O)NC(=O)[C@H](CO)NC(=O)[C@@H](N)Cc1c[nH]c2ccccc12)[C@@H](C)O)[C@@H](C)O)C(=O)N[C@@H](CC(=O)O)C(=O)NC(C)(C)C(=O)N[C@@H](CCCCN)C(=O)N[C@@H](CCCNC(=N)N)C(=O)N[C@@H](C)C(=O)N[C@@H](CCC(N)=O)C(=O)N[C@@H](CCC(=O)O)C(=O)N[C@@H](Cc1ccccc1)C(=O)N[C@H](C(=O)NC(C)(C)C(=O)N[C@@H](Cc1c[nH]c2ccccc12)C(=O)N[C@@H](CC(C)C)C(=O)N[C@@H](CCC(=O)O)C(=O)N[C@@H](CC(=O)O)C(=O)N[C@@H](CCC(=O)O)C(=O)N1CCC[C@H]1C(=O)N[C@@H](CO)C(=O)N[C@@H](CO)C(=O)NCC(=O)N[C@@H](C)C(=O)N1CCC[C@H]1C(=O)N1CCC[C@H]1C(=O)N1CCC[C@H]1C(=O)N[C@@H](CO)C(=O)O)C(C)C
B8: Compound A4 (peptide)
peptide: YSHGTFTSDYSKYLD[Aib]KRAQEFVIWLEDEPSSGAPPPS-OH
modifications: N-terminus assumed
SMILES: CC[C@H](C)[C@H](NC(=O)[C@@H](NC(=O)[C@H](Cc1ccccc1)NC(=O)[C@H](CCC(=O)O)NC(=O)[C@H](CCC(N)=O)NC(=O)[C@H](C)NC(=O)[C@H](CCCNC(=N)N)NC(=O)[C@H](CCCCN)NC(=O)C(C)(C)NC(=O)[C@H](CC(=O)O)NC(=O)[C@H](CC(C)C)NC(=O)[C@H](Cc1ccc(O)cc1)NC(=O)[C@H](CCCCN)NC(=O)[C@H](CO)NC(=O)[C@H](Cc1ccc(O)cc1)NC(=O)[C@H](CC(=O)O)NC(=O)[C@H](CO)NC(=O)[C@@H](NC(=O)[C@H](Cc1ccccc1)NC(=O)[C@@H](NC(=O)CNC(=O)[C@H](Cc1c[nH]cn1)NC(=O)[C@H](CO)NC(=O)[C@@H](N)Cc1ccc(O)cc1)[C@@H](C)O)[C@@H](C)O)C(C)C)C(=O)N[C@@H](Cc1c[nH]c2ccccc12)C(=O)N[C@@H](CC(C)C)C(=O)N[C@@H](CCC(=O)O)C(=O)N[C@@H](CC(=O)O)C(=O)N[C@@H](CCC(=O)O)C(=O)N1CCC[C@H]1C(=O)N[C@@H](CO)C(=O)N[C@@H](CO)C(=O)NCC(=O)N[C@@H](C)C(=O)N1CCC[C@H]1C(=O)N1CCC[C@H]1C(=O)N1CCC[C@H]1C(=O)N[C@@H](CO)C(=O)O
B9: Compound A7 (peptide)
peptide: YSHGTFTSDYSKYLD[Aib]ARAQEFV[Aib]WLEDEPSSGAPPPS-OH
modifications: N-terminus assumed
SMILES: CC(C)C[C@H](NC(=O)[C@H](Cc1ccc(O)cc1)NC(=O)[C@H](CCCCN)NC(=O)[C@H](CO)NC(=O)[C@H](Cc1ccc(O)cc1)NC(=O)[C@H](CC(=O)O)NC(=O)[C@H](CO)NC(=O)[C@@H](NC(=O)[C@H](Cc1ccccc1)NC(=O)[C@@H](NC(=O)CNC(=O)[C@H](Cc1c[nH]cn1)NC(=O)[C@H](CO)NC(=O)[C@@H](N)Cc1ccc(O)cc1)[C@@H](C)O)[C@@H](C)O)C(=O)N[C@@H](CC(=O)O)C(=O)NC(C)(C)C(=O)N[C@@H](C)C(=O)N[C@@H](CCCNC(=N)N)C(=O)N[C@@H](C)C(=O)N[C@@H](CCC(N)=O)C(=O)N[C@@H](CCC(=O)O)C(=O)N[C@@H](Cc1ccccc1)C(=O)N[C@H](C(=O)NC(C)(C)C(=O)N[C@@H](Cc1c[nH]c2ccccc12)C(=O)N[C@@H](CC(C)C)C(=O)N[C@@H](CCC(=O)O)C(=O)N[C@@H](CC(=O)O)C(=O)N[C@@H](CCC(=O)O)C(=O)N1CCC[C@H]1C(=O)N[C@@H](CO)C(=O)N[C@@H](CO)C(=O)NCC(=O)N[C@@H](C)C(=O)N1CCC[C@H]1C(=O)N1CCC[C@H]1C(=O)N1CCC[C@H]1C(=O)N[C@@H](CO)C(=O)O)C(C)C

Key:
[1] = target: human GLP-1 receptor (GLP-1R) (human, UniProt P43220 24-463); experiment: cell-based or functional assay
Sequence of human GLP-1 receptor (GLP-1R) (P43220 24-463): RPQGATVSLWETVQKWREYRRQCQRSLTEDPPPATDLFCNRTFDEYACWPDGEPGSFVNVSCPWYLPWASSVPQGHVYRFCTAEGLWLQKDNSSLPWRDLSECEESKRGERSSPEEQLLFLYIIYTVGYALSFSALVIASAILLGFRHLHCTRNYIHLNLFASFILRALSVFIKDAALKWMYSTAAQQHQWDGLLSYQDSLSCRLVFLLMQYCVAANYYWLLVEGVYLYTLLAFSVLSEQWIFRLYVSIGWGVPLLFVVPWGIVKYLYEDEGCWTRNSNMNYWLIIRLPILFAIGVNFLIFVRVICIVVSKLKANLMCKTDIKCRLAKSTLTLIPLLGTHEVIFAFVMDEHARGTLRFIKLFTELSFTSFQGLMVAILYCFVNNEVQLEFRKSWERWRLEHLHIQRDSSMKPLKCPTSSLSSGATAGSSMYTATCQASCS

[2] = target: human glucagon receptor (GCGR) (human, UniProt P47871 26-477); experiment: cell-based or functional assay

Binder | hGLP1 pEC50 (cAMP) [1] | hGCGR pEC50 (cAMP) [2]
B1 | 5.2 pEC50 | 12.3 pEC50
B2 | 5.4 pEC50 | 11.7 pEC50
B3 | < 9 pEC50 | 10.2 pEC50
B4 | < 9 pEC50 | 10.8 pEC50
B5 | 6.7 pEC50 | 12.1 pEC50
B6 | 5.8 pEC50 | 11.8 pEC50
B7 | 5.3 pEC50 | 11.7 pEC50
B8 | < 5 pEC50 | 11.8 pEC50
B9 | < 9 pEC50 | 11.9 pEC50
